Source: article PMC5620058, “IL-12p35 induces expansion of IL-10 and IL-35-expressing regulatory B cells and ameliorates autoimmune disease” (Nature Communications, 2017)

Target: the molecule itself
Assay: AUC; sedimentation equilibrium, native conditions, non-reducing; peak fraction of Superose-6 further purified by Centricon filtration

B1: mouse recombinant IL-12p35 (rIL-12p35; HBM-p35-Flag-His) (natural protein, UniProt P43431 23-215, looked up)
chain: RVIPVSGPARCLSQSRNLLKTTDDMVKTAREKLKHYSCTAEDIDHEDITRDQTSTLKTCLPLELHKNESCLATRETSSTTRGSCLPPQKTSLMMTLCLGSIYEDLKMYQTEFQAINAALQNHNHQQIILDKGMLVAIDELMQSLNHNGETLRQKPPVGEADPYRVKMKLCILLHAFSTRVVTINRVMGYLSSA
notes: IL-12p35 (Il12a), mouse; cDNA amplified with the printed primers and cloned behind the honeybee melittin (HBM) secretion signal of pMIB; The same construct was obtained as a monomer (~27 kDa, FPLC fractions 29-30) and as a p35−p35 homodimer (~56-57 kDa, fractions 20-21); also called p35−p35; source: purified (Ni-NTA, Centricon filtration, Sephacryl S-200 and Superose-6 FPLC)
- stoichiometry N: 2
